According to paper PMC5906637:
pKd, pKi: −log10 of the molar value.

Assays:
human fibrinogen (human) = human fibrinogen (human) (UniProt P02671); assay: other fluorescence titration; thrombin, FXa or fibrinogen (0.2 µM each) incubated with lunathrombase (0.2-1.0 µM in the methods, 0.2-1.4 µM in the legend) for 3 min at room temperature; excitation 280 nm, emission 300-425 nm; one site saturation binding curve
FXa [1] = assay: as above
human thrombin (human) [2] = assay: as above
FXa [3] = molecular target: FXa
FXa [4] = assay: enzyme inhibition kinetics (amidolytic activity); thrombin (36.6 nM; 3.0 µl, 10 NIH/ml) with chromogenic substrate T1637 or FXa (0.13 µM) with F3301, lunathrombase 0-0.4 µM; Michaelis-Menten fit; competitive model for thrombin, non-competitive model for FXa
human thrombin (human) [5] = assay: as above

pKd (human fibrinogen (human)): 6.26 | pKd (FXa [1]): 5.72 | pKd (human thrombin (human) [2]): 6.60 | inhibition of prothrombin (1.4 µM) activation by FXa (0.13 µM) pre-incubated with lunathrombase (0.2 µM), SDS-PAGE (FXa [3]): 100% | pKi (FXa [4]): 7.99 | pKi (human thrombin (human) [5]): 7.57
Substance: lunathrombase (enzyme)
